Where “and” joins values, the source holds several entries; their conditions need not be identical. Equal entries are not always repeated.
What was measured:
[1] = target: Cynomolgus TTR denatured in 6 M Guanidine Hydrochloride (Cynomolgus, UniProt Q8HXW1 21-147); assay: SPR Biacore T200, antibody captured by anti-mouse antibody, Gu-cTTR 1-1000 nM as analyte, 1:1 fit
Method: (§1) Anti-Mouse antibody was immobilized on sensor chip CM3 (GE Healthcare Life Sciences) via amine coupling, and murine antibodies (ligand) were captured to a level to ensure a maximum binding of analyte of 50 RU (approximately 250RU of ligand binding). Various concentrations of Gu-TTR (ranging from 0.4 nM to 100 nM) were passed over the captured ligand at 50 μL/min in running buffer (HBS+0.05% P-20, 1 mg/mL BSA, 50 mM Gu-HCl) for 300 s association time and 900 s dissociation time. Regeneration of the chip surface was accomplished by 2 short injections of 10 mM Glycine-HCl at pH 1.7. Concentrations of Gu-cTTR used ranged from 1-1000 nM, while concentrations of Human TTR tetramer ranged from 10 nM to 10,000 nM. Data was blank subtracted to both a sensor not containing ligand and 0 nM analyte concentration. Analysis was performed using a global 1:1 fit with Biacore Evaluation software (v3.0) with bulk refractive index set to zero RU.

[2] = target: T1, recombinant human TTR, denatured (misfolded) (human, UniProt P02766 21-147); assay: SPR Biacore T200, antibody captured by anti-mouse antibody, Gu-hTTR 0.4-100 nM as analyte, 1:1 fit
Method: (§2) Anti-Human antibody was immobilized on flow cells 1 and 2, Anti-Mouse antibody was immobilized on flow cells 3 and 4 on sensor chip CM3 (GE Healthcare Life Sciences) via amine coupling, chimeric and murine 18C5 antibodies (ligand) were captured to a level to ensure a maximum binding of analyte of 50 RU (approximately 250RU of ligand binding). Various concentrations of Gu-TTR (ranging from 0.4 nM to 100 nM) were passed over the captured ligand at 50 μL/min in running buffer (HBS+0.05% P-20, 1 mg/mL BSA, 50 mM Gu-HCl) for 300s association time and 900s dissociation time. Regeneration of the chip surface was accomplished by 2 short injections of 3M Magnesium Chloride or 2 short injections of 10 mM Glycine-HCl at pH 1.7. Data was blank subtracted to both a sensor not containing ligand and 0 nM analyte concentration. Analysis was performed using a global 1:1 fit with Biacore Evaluation software (v3.0) with bulk refractive index set to zero RU.

[3] = target: native tetrameric human TTR (human, UniProt P02766 21-147); assay: SPR Biacore T200, antibody captured by anti-mouse antibody, human TTR tetramer 10-10,000 nM as analyte, 1:1 fit
Method: as §1

[4] = target: T1, recombinant human TTR, denatured …; assay: SPR Biacore T200, antibody captured by anti-mouse antibody, Gu-hTTR as analyte, 1:1 fit
Method: as §1

[5] = target: T1, recombinant human TTR, denatured …; assay: SPR Biacore T200, antibody captured by anti-human antibody, Gu-hTTR 0.4-100 nM as analyte, 1:1 fit
Method: as §2

[6] = target: misfolded TTR in plasma of ATTR patients (human, UniProt P02766 21-147); assay: MSD ECL competition: m14G8 spiked into plasma of 12 h-ATTR patients, free mis-TTR captured by biotinylated 9D5 (competitor), Dako polyclonal reporter

B1: mouse 18C5 antibody (antibody, V domains shown)
VH: EVKLLESGGGLVQPGGSLNLSCVASGFDFSRFWMSWARQAPGRGQEWIGEINPGSSTINYTPSLKDKFIISRDNAKNTLFLQMSKVRSEDSALYYCARLGYGNYGWALDYWGQGTSVTVSS
VL: DVLMTQTPLSLPVSLGDQASISCRSSQSIVDSNGNTYLEWYLQKPGQSPKLLIYKVSNRFSGVPDRFSGSGSGTDFTLKISRVEAEDLGIYYCFQGSHVPLTFGAGTKLELK
notes: Used unlabelled (Biacore, Western blot), biotinylated (capture) or SULFO-TAG labelled (reporter) in the MSD assays; also called murine 18C5; m18C5
- koff [1]: 0.00092 s⁻¹
- kon [1]: 100000 M⁻¹ s⁻¹
- Kd [2]: 2.2 nM
- koff [2]: 0.00021 s⁻¹
- kon [2]: 99000 M⁻¹ s⁻¹
- koff [3]: 0.00022 s⁻¹
- kon [3]: 2200 M⁻¹ s⁻¹
- Kd [4]: 5.9 nM
- koff [4]: 0.00062 s⁻¹
- kon [4]: 110000 M⁻¹ s⁻¹

B2: chimeric 18C5 antibody (antibody, human IgG1, kappa, V domains shown)
VH: B1 VH
VL: DVLMTQTPLSLPVSLGDQASISCRSSQSIVDSNGNTYLEWYLQKPGQSPKLLIYKVSNRFSGVPDRFSGSGSGTDFTLKISRVEAEDLGIYYCFQGSHVPLTFGAGTKLELKR
notes: Mouse 18C5 variable regions on human IgG1/kappa constant regions, expressed in CHO cells
- Kd [5]: 1.8 nM
- koff [5]: 0.00016 s⁻¹
- kon [5]: 130000 M⁻¹ s⁻¹

B3: Mouse 14G8 (antibody, V domains shown)
VH: EVKLVESGGGLVQPGGSLKLSCAASGFTFSSYTMSWVRQTPEKRLELVAEINNSGDTTYYPDTVKGRFTISRDNAKNTLYLQMSSLKSEDTAMYYCARHYYYGGGYGGWFFDVWGTGTTVTVSS
VL: DIVMTQAAPSVPVTPGESVSISCRSNKSLLHSNGNTYLYWFLQRPGQSPQLLIYRVSNLASGVPDRFSGSGSGTAFTLRISRVEAEDVGVYYCMQHLEYPLTFGAGTKLELKR
- EC50 [6]: 343 nM and ~50 µg/mL
